Reference: article PMC3424236, “Siderocalin/Lcn2/NGAL/24p3 Does Not Drive Apoptosis Through Gentisic Acid Mediated Iron Withdrawal in Hematopoietic Cell Lines” (PLoS ONE, 2012)

Molecular target: T1, Scn (Mus musculus, UniProt P11672)
T1 construct: made in house; host or cells: E. coli
T1 sequence (P11672 21-200): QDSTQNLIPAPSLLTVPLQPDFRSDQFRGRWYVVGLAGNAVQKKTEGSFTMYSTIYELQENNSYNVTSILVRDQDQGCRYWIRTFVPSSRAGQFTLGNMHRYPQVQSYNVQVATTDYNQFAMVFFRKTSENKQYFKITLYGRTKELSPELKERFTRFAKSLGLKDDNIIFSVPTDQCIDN
Assay: Binding of BOCT subdomains and loop peptides to Scn (SPR, SEC)
Parameters: species or system murine
Protocol: NTD^1–102 and CTD^477–520 were expressed recombinantly in E. coli, the former as a His-tagged, periplasmically-targeted construct and the latter as a cytoplasmically-targeted, cleavable GST-fusion (Figures 5C and 5D). Binding of NTD or CTD to Scn was assayed by SEC (e. g., Figure 5E) and SPR (e. g., Figure 5D). In Figure 5D, 2086 SPR response units (RUs) of Scn were amine-coupled to CM5 sensor chips (Biacore) following the manufacturer’s protocol. CTD analytes, at concentrations from 3.125 to 50 µM, were injected in duplicate, in random order, for one minute at a flow rate of 20 µl/min on a Biacore 3000 system. Sensorgrams were blank-corrected by the double-subtraction method, using a capped channel as blank. […] Peptides corresponding to predicted cell-surface loops of significant length (>6 residues) in either topology were synthesized commercially (Genscript) with N-terminal biotin groups:
BOCT loop peptides were coupled to strepavidin-coated sensor chips and analyzed with Scn analytes using analogous methodology; as above, no quantifiable responses were detected (data not shown).

binding to Scn (SPR, SEC): Comparable results
B1: NTD: BOCT N-terminal domain, residues 1 through 102, recombinantly expressed in E. coli (protein)
chain: MPSARFGRRGIVLLTLGLVGPCGVGGAAAGSSTGIMALRFLLGFLLAGVDLGVYLMRLELCDPTQRLRVALAGELVGVGGHFLFLGLALVSKDWRFLQRMIT
modifications: left off: His tag, end not stated, state not stated
notes: BOCT N-terminal domain, residues 1 through 102, recombinantly expressed in E. coli
